Source: publication PMC7235047
Where a chain is given by its changes, count along the chain named. Names and notes keep the numbering of the source. One block for each binder: values may come before it.

Target: γH2AX, P16104
Experiment: proximity ligation assay (PLA)
Settings: chain shown with the change, U2OS cells transfected with GFP-RNF168 wildtype and mutants, antibodies against GFP and γH2AX, 75 (wildtype), parent: est. 43, read off a plot

response (n = 53 cells (R57D/Δ143-144)): 11
B1: GFP-RNF168 wildtype, Q8IYW5 R57D; E143del; E144del (protein)
chain: MALPKDAIPSLSECQCGICMEILVEPVTLPCNHTLCKPCFQSTVEKASLCCPFCRRDVSSWTRYHTRRNSLVNVELWTIIQKHYPRECKLRASGQESEEVADDYQPVRLLSKPGELRREYEEEISKVAAERRASEEEENKASYIQRLLAEEEEEEKRQAEKRRRAMEEQLKSDEELARKLSIDINNFCEGSISASPLNSRKSDPVTPKSEKKSKNKQRNTGDIQKYLTPKSQFGSASHSEAVQEVRKDSVSKDIDSSDRKSPTGQDTEIEDMPTLSPQISLGVGEQGADSSIESPMPWLCACGAEWYHEGNVKTRPSNHGKELCVLSHERPKTRVPYSKETAVMPCGRTESGCAPTSGVTQTNGNNTGETENEESCLLISKEISKRKNQESSFEAVKDPCFSAKRRKVSPESSPDQEETEINFTQKLIDLEHLLFERHKQEEQDRLLALQLQKEVDKEQMVPNRQKGSPDEYHLRATSSPPDKVLNGQRKNPKDGNFKRQTHTKHPTPERGSRDKNRQVSLKMQLKQSVNRRKMPNSTRDHCKVSKSAHSLQPSISQKSVFQMFQRCTK

response (n = 74 cells (Δ143-144)): 34
B2: GFP-RNF168 wildtype, Q8IYW5 E143del; E144del (protein)
chain: B1 chain with D57R
